# Assay results as given in EP4806914A1.
# What was measured:
# [1] = target: AAV9 empty capsid (adeno-associated virus serotype 9 (AAV9)); assay: ELISA, 0.1 ug AAV9 coated on Maxisorp plate, scFv detected with HRP-labeled anti-His-Tag antibody, A450-A650; reference: blank (BSA)
# [2] = target: AAV9 full capsid (adeno-associated virus serotype 9 (AAV9)); assay: ELISA, 0.1 ug AAV9 coated on Maxisorp plate, scFv detected with HRP-labeled anti-His-Tag antibody, A450-A650; reference: AAV9 empty capsid sample
Binder,IE/IB (ratio of ELISA absorbance for the empty capsid sample to that for the blank (BSA)) [1],IF/IE (ratio of ELISA absorbance for the full capsid sample to that for the empty capsid sample) [2]
third anti-AAV-scFv [3] (scFv) scFv: QSVEESGGDLVKPGASLTLTCTASGIDFSSGYDMCWVRQAPGKGLEWIGCIYTGGDSAWYASWAKGRFTISKTSSTTVTLQMTSLTGADTATYFCANDLDSGTVSIWGPGTLVTVTSGGGGSGGGGSGGGGSELVLTQTAASVSEPVGGTVTIKCQASQSISSWLSWYQQKPGQPPKLLIYQASKLASGVPSRFKGSGSGTQFTLTISDVVCDDAATYYCAGWTSSTTDGTAFGGGTEVVITGSAAAGGGSEQKLISEEDLGGGSHHHHHH,2.22,6.11
fourth anti-AAV-scFv [4] (scFv) scFv: QSLEESGGDLVKPGASLTLTCTASGFSFSSSAYMCWVRQAPGKGLEWIGCMHTISSVDTYYASWAKGRFAISKASSTTVTLQMTSLTAADTATYFCARDDRNGYGYPYSFDIWGPGTLVTVTSGGGGSGGGGSGGGGSELDLTQTAASVEAAVGGTITIKCQASQTISSYLAWYQQKPGQPPKLLIYRASTLASGVSSRFKGSGSGTEYTLTISDLECADAATYYCLTYYGNSHNFGGGTEVVIKGSAAAGGGSEQKLISEEDLGGGSHHHHHH,3.09,7.17
second anti-AAV-scFv [2] (scFv) scFv: QSLEESGGDLVKPGASLTLTCTASGFSFSSNYWMFWVRQAPGKGLEWIAHIYGGSSGSTYYASWAKGRFTISKTSSTTVTLQMTSLTAADTATYFCATVDNGYSDLKLWGPGTLVTVTSGGGGSGGGGSGGGGSELVLTQTADSVEAGVGGTVTIKCQASQSIRNWLSWYQQKPGQPPKLLISRASTLASGVPSRFSGSGSGTEFTLTISDLECDDGATYYCQSSFYADSGEPAFGGGTEVDIKRSAAAGGGSEQKLISEEDLGGGSHHHHHH,–,8.23
first anti-AAV-scFv [1] (scFv) scFv: QSLEESGGGLVKPGASLTLTCTASGFSFSSYGISWFRQAPGKGLEWIGTIYGGSSGSTYYASWAKGRFTISKTSSTTMTLQMASLTAADTATYFCARDRVGGNGYADLWGPGTLVTVTSGGGGSGGGGSGGGGSELVMTQTAASVEAAVGGTVTIKCQASQSISSYLAWYQQKPGQRPKLLIYRASTLASGVSSRFKGSGSGTEYTLTISDLECDDAATYYCQSHYDIRNYGVAFGGGTEVDIKRSAAAGGGSEQKLISEEDLGGGSHHHHHH,1.5,6.54
